9 molecules from patent US20060045884A1 (BOARD OF REGENTS, published 2006) can be followed below.

The target of assay [1] is T1, HLA-A2.1 (HLA-A*0201) with β2-microglobulin on the surface of T2 cells (human).
T1 construct: also called surface HLA-A2.1 on T2
Briefly: T2 cell HLA-A2.1 stabilisation, flow cytometry (FIG. 34).

The target of assay [2] is T2, HLA-A2.1 heavy chain with I125-labeled β2-microglobulin (heterotrimer dissociation assay) (human, I^125-labeled).
T2 construct: The complex is isolated by HPLC gel filtration; T1/2 is the half-time of β2m dissociation from the complex that holds the tested peptide; also called heterotrimer complex of the HLA-A2.1 heavy chain, peptide, and β2-microglobulin
Briefly: 125I-β2-microglobulin dissociation from the heterotrimer, gel filtration.

The target of assay [3] is T2, HLA-A2.1 heavy chain with I125-labeled …. Briefly: dissociation of 125I-β2-microglobulin from the HLA-A2.1/peptide/β2m heterotrimer, HPLC gel filtration.
Assay [4] concerns the target T1, HLA-A2.1 (HLA-A*0201) with …. The assay can be described thus: peptide-binding assay, HLA-A2 stabilisation on T2 cells; reference peptide PR1.

B1: MY3 peptide (myeloperoxidase derived) (peptide)
peptide: LLSYFKQPV
On to B1, for which the binding result in assay [1] and in assay [2] was “binds” throughout.

B2: MY4 peptide (myeloperoxidase derived) (peptide)
peptide: RLFEQVMRI
Regarding B2, the binding result in assay [1] and in assay [2] was “binds” throughout.

B3: PR1 peptide (proteinase 3 aa 169-177) (peptide)
peptide: VLQELNVTV
notes: Synthetic peptide, at least 95% pure
On to B3, for which the T1/2 in assay [3] is 24.3 h.

B4: MY1 peptide (myeloperoxidase derived) (peptide)
peptide: SLWRRPFNV
For B4, the binding result in assay [1] and in assay [2] was “binds” throughout.

B5: CCNE1144-152 (cyclin E1 derived nonameric peptide) (peptide)
peptide: ILLDWLMEV
notes: also called cyclin E1 peptide
Regarding B5, the “FI ratio to PR1 (stabilisation of HLA-A2 on T2 cells)” value in assay [4] is 1.01 ratio.

B6: CCNE2144-152 (cyclin E2 derived nonameric peptide) (peptide)
peptide: ILLDWLLEV
notes: also called cyclin E2 peptide
In the case of B6, in assay [4], the “FI ratio to PR1 (stabilisation of HLA-A2 on T2 cells)” value stood at 1.19 ratio.

B7: PR2 peptide (proteinase 3 derived) (peptide)
peptide: RLFPDFFTRV
notes: Synthetic peptide
In assay [3], B7 yielded a T1/2 of 2.33 h.

B8: MY5 peptide (myeloperoxidase derived) (peptide)
peptide: LIQPFMFRL
Take B8: the binding result in assay [1] and in assay [2] was “binds” each time.

B9: MY2 peptide (myeloperoxidase derived) (peptide)
peptide: KLLLALAGL
Turning to B9, the binding result in assay [1] and in assay [2] was “binds” throughout.
